These results are taken from publication PMC2728497.

The test addresses Aβ1-40wt (human). Put plainly: SEC. A general note: Size exclusion chromatography separates by hydrodynamic size, large species first.

Turning to Aβ1-40wt (peptide), the stoichiometry N was found to be 2.

What is called stoichiometry N is the number of molecules, sites or subunits per partner or assembly.
